“And” between values parts separate entries of the source, which are not always exact repeats. Identical values can stand only once.
Columns and labels:
[1] = Bleomycin mouse model of pulmonary fibrosis; format: in vivo
Text: The optimal dose of Bleomycin is 2 U/mouse and the optimal time for assessing fibrocyte recruitment was confirmed at day 4. At days 4 bronchoalvelolar lavage (BAL) fluids were collected for analysis of SDF-1 concentration. One half of the lung tissue was used to make single cell suspensions of the lung and the cells used for flow cytometry and assayed for CD45+, CXCR4+ and Collagen1+ (fibrocytes). The other half of the lung tissue was Sircol stained for the presence of collagen 1 and RNA will be tested for Col-1, Col-3 and SDF-1.
SDF-1, fibrocytes and collagen deposition were monitored at Day 4. Groups were dosed with the i-body just prior to administration with Bleomycin. One half of the lung tissue was minced and washed in PBS and used to make single cell suspensions of the lung with Collagenase A and dispase treatment. The cells were then used for flow cytometry and assayed for CD45+, CXCR4+ and Collagen1+ fibrocytes. […]

[2] = molecular target: T1, human CXCR4 (CXCR4 positive lipoparticles) (Homo sapiens, UniProt P61073); test: Biacore SPR kinetic binding to immobilised CXCR4 lipoparticles
T1 construct: purchased Integral Molecular LEV-101B
Experimental: (FIGS. 2A-2C, 5A-5C, 11A-11D, 17A-17B) Kinetic binding analysis of selected i-bodies with immobilized CXCR4 lipoparticles were performed at 25° C. using Biacore T200 instrument (GE Healthcare, Uppsala, Sweden). Streptavidin immobilization was performed in 1×HBS-P+ running buffer (10 mM HEPES, 150 mM NaCl, 0.05% [v/v] Tween-20). […] All binding experiments involving lipoparticles were performed with 1×HBS/BSA (10 mM HEPES, 150 mM NaCl, 1 mg/mL BSA) as instrument running buffer. […] In order to determine binding kinetics, serial dilutions (three-fold) of i-bodies diluted in 1×HBS/BSA were injected over immobilized lipoparticles with the association and dissociation phases monitored for 60 sec and 600 sec, respectively. A control measurement of the instrument running buffer (“zero-buffer” blank) solution was also included for double referencing purposes. Collected experimental data were processed using Scrubber software (www.biologic.com.au). Kinetic parameters (ka=association and kd=dissociation rate constants) and equilibrium dissociation constant (KD=kd/ka) were derived by fitting each set of experimental data to a Langmuir 1:1 binding model. All interaction measurements were performed in triplicate and the derived binding parameters reported as averaged values±standard deviation.

[3] = CXCR4 expressed on lipoparticles (Table 4)
[4] = off-rate, CXCR4 expressed on lipoparticles (Table 3)

T1 sequence (P61073 whole entry): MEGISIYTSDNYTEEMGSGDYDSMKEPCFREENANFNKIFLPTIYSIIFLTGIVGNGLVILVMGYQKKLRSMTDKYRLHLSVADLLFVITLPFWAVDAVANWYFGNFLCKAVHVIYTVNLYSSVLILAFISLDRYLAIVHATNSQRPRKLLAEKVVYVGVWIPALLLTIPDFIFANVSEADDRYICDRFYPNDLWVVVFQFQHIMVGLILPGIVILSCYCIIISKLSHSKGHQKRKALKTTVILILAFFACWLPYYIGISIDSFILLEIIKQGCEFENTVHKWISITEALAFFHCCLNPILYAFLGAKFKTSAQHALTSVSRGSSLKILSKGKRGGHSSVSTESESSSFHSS

Molecule	dissociation rate constant (kd) [2, 4]	other results
Cc1ccc(=O)n(-c2ccccc2)c1 [Pirfenidone, reference compound]		recruitment of fibrocytes into the lungs ([1]; day 4, dose not given): able to block recruitment of fibrocytes; collagen content of the lung (Sircol) ([1]; positive controls, dose not stated): reduction in collagen
AM3-466: affinity matured CXCR4 i-body, SEQ ID NO: 64 (protein, protein sequence encoding AM3-466) LQVDIVPSQGEISVGESKFFLCQVAGSGSHQRISWFSPNGEKLTPNQQRISVVWNDDSSSTLTIYNANIDDAGIYKCVVWRTGAYRHRALVLGEATVNVKIFQ	0.00784	Ka [2, 3]: 465000 M⁻¹ s⁻¹ and 426000 M⁻¹ s⁻¹
AM4-239: affinity matured i-body, CDR1 SEQ ID NO: 89, CDR3 SEQ ID NO: 90 (protein) LQVDIVPSQGEISVGESKFFLCQVAGAYSDIRISWFSPNGEKLTPNQQRISVVWNDDSSSTLTIYNANIDDAGIYKCVVYRTGGYRHRYLVLGEATVNVKIFQ	0.01356	
AM3-32: affinity matured i-body, CDR1 SEQ ID NO: 91, CDR3 SEQ ID NO: 92 (protein) LQVDIVPSQGEISVGESKFFLCQVAGSGSGITISWFSPNGEKLTPNQQRISVVWNDDSSSTLTIYNANIDDAGIYKCVVWRTGVYRHRALVLGEATVNVKIFQ	0.0136	
AM4-203: affinity matured i-body, CDR1 SEQ ID NO: 101, CDR3 SEQ ID NO: 102 (protein) LQVDIVPSQGEISVGESKFFLCQVAGSYGDIRISWFSPNGEKLTPNQQRISVVWNDDSSSTLTIYNANIDDAGIYKCVVYRTGGWRHRYLVLGEATVNVKIFQ	0.01621	
AM3-182: affinity matured i-body, CDR1 SEQ ID NO: 99, CDR3 SEQ ID NO: 100 (protein) LQVDIVPSQGEISVGESKFFLCQVAGVGNHIRISWFSPNGEKLTPNQQRISVVWNDDSSSTLTIYNANIDDAGIYKCVVWRAGGYRHRALVLGEATVNVKIFQ	0.01562	
AM4-208: affinity matured i-body, CDR1 SEQ ID NO: 85, CDR3 SEQ ID NO: 86 (protein) LQVDIVPSQGEISVGESKFFLCQVAGSKSEIRISWFSPNGEKLTPNQQRISVVWNDDSSSTLTIYNANIDDAGIYKCVVYRTGGYRHRYLVLGEATVNVKIFQ	0.01283	
AM4-352: affinity matured i-body, CDR1 SEQ ID NO: 97, CDR3 SEQ ID NO: 98 (protein) LQVDIVPSQGEISVGESKFFLCQVAGSKDDIRISWFSPNGEKLTPNQQRISVVWNDDSSSTLTIYNANIDDAGIYKCVVYRTGGYRHRYLVLGEATVNVKIFQ	0.0152	
AM4-386: affinity matured i-body, CDR1 SEQ ID NO: 95, CDR3 SEQ ID NO: 96 (protein) LQVDIVPSQGEISVGESKFFLCQVAGITSEGHISWFSPNGEKLTPNQQRISVVWNDDSSSTLTIYNANIDDAGIYKCVVETTVFNEVMRLGNGAHVYEATVNVKIFQ	0.015	

Second part, led by results:

dissociation rate constant (kd) [2, 4]	Molecule	other results
0.0105	AM4-774: affinity matured i-body, CDR1 SEQ ID NO: 83, CDR3 SEQ ID NO: 84 (protein) LQVDIVPSQGEISVGESKFFLCQVAGSKSVIRISWFSPNGEKLTPNQQRISVVWNDDSSSTLTIYNANIDDAGIYKCVVYRTGGYRHRYLVLGEATVNVKIFQ	
0.00955	AM4-661: affinity matured CXCR4 i-body, SEQ ID NO: 60 (protein, protein sequence encoding AM4-661) LQVDIVPSQGEISVGESKFFLCQVAGSKSDFRISWFSPNGEKLTPNQQRISVVWNDDSSSTLTIYNANIDDAGIYKCVVYRTGGYRHRYLVLGEATVNVKIFQ	Ka [2, 3]: 966000 M⁻¹ s⁻¹ and 983000 M⁻¹ s⁻¹; dissociation rate constant (kd) [2, 3]: 9210 M⁻¹ s⁻¹ and 9500 M⁻¹ s⁻¹
0.01488	AM4-757: affinity matured i-body, CDR1 SEQ ID NO: 93, CDR3 SEQ ID NO: 94 (protein) LQVDIVPSQGEISVGESKFFLCQVAGSKSAIRISWFSPNGEKLTPNQQRISVVWNDDSSSTLTIYNANIDDAGIYKCVVYRTGSYRHRYLVLGEATVNVKIFQ	
0.01236	AM4-613: affinity matured CXCR4 i-body, SEQ ID NO: 52 (protein, protein sequence encoding AM4-613) LQVDIVPSQGEISVGESKFFLCQVAGSKSDVRISWFSPNGEKLTPNQQRISVVWNDDSSSTLTIYNANIDDAGIYKCVVWRTGGYRHRYLVLGEATVNVKIFQ	Ka [2, 3]: 1.334e+06 M⁻¹ s⁻¹; dissociation rate constant (kd) [2, 3]: 10440 M⁻¹ s⁻¹

Reference: patent publication US11142588B2, “Polypeptides which bind C-X-C chemokine receptor type 4 (CXCR4) and methods of treating or reducing the risk of fibrosis and cancer” (AdAlta Limited, priority 2015, dated 2021)
